# Source: patent US20130143798A1 (Novo Nordisk, published 2013)
# Numbered stars: 1 amine (or outer) side, 2 acyl side, 3 side chain; on linkers, the order of the positions; unused ones are H or OH. Side chains are listed from the residue outwards. Ends that are not written are not given here. * marks the point of attachment. C18 diacid = O=C(O)CCCCCCCCCCCCCCCCC(=O)*; γGlu = O=C(O)[C@H](CCC(=O)[*:2])N[*:1]; AEEA = NCCOCCOCC(=O)O
# Biological target: glucagon receptor (UniProt P47871 26-477, limits assumed)
# Sequence (P47871 26-477 limits assumed): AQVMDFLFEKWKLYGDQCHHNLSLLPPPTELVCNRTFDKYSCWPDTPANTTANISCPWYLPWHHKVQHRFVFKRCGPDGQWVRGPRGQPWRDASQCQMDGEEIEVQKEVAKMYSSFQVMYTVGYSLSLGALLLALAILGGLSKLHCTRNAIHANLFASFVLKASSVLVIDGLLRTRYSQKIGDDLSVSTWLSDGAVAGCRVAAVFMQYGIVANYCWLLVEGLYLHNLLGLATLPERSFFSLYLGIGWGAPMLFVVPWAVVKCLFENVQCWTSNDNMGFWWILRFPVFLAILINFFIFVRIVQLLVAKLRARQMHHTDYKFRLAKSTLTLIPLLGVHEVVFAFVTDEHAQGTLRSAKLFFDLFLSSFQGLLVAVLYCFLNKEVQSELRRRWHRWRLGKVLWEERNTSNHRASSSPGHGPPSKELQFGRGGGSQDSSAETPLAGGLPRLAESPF
# Test: cell-based or functional assay
row,Assay (I) Glucagon [EC50],Binder
1,0.016 nM,HSQGTFTSDYSKYLDSKRAQEFVK([AEEA-AEEA-γGlu-C18 diacid])WLLNT-NH2 (N-terminus assumed; SMILES CC(C)C[C@H](NC(=O)[C@H](Cc1ccc(O)cc1)NC(=O)[C@H](CCCCN)NC(=O)[C@H](CO)NC(=O)[C@H](Cc1ccc(O)cc1)NC(=O)[C@H](CC(=O)O)NC(=O)[C@H](CO)NC(=O)[C@@H](NC(=O)[C@H](Cc1ccccc1)NC(=O)[C@@H](NC(=O)CNC(=O)[C@H](CCC(N)=O)NC(=O)[C@H](CO)NC(=O)[C@@H](N)Cc1c[nH]cn1)[C@@H](C)O)[C@@H](C)O)C(=O)N[C@@H](CC(=O)O)C(=O)N[C@@H](CO)C(=O)N[C@@H](CCCCN)C(=O)N[C@@H](CCCNC(=N)N)C(=O)N[C@@H](C)C(=O)N[C@@H](CCC(N)=O)C(=O)N[C@@H](CCC(=O)O)C(=O)N[C@@H](Cc1ccccc1)C(=O)N[C@H](C(=O)N[C@@H](CCCCNC(=O)COCCOCCNC(=O)COCCOCCNC(=O)CC[C@H](NC(=O)CCCCCCCCCCCCCCCCC(=O)O)C(=O)O)C(=O)N[C@@H](Cc1c[nH]c2ccccc12)C(=O)N[C@@H](CC(C)C)C(=O)N[C@@H](CC(C)C)C(=O)N[C@@H](CC(N)=O)C(=O)N[C@H](C(N)=O)[C@@H](C)O)C(C)C)
2,0.018 nM,HSQGTFTSDYSKYLDK([AEEA-AEEA-γGlu-C18 diacid])KRAQEFVQWLLNT-NH2 (N-terminus assumed; SMILES CC(C)C[C@H](NC(=O)[C@H](Cc1ccc(O)cc1)NC(=O)[C@H](CCCCN)NC(=O)[C@H](CO)NC(=O)[C@H](Cc1ccc(O)cc1)NC(=O)[C@H](CC(=O)O)NC(=O)[C@H](CO)NC(=O)[C@@H](NC(=O)[C@H](Cc1ccccc1)NC(=O)[C@@H](NC(=O)CNC(=O)[C@H](CCC(N)=O)NC(=O)[C@H](CO)NC(=O)[C@@H](N)Cc1c[nH]cn1)[C@@H](C)O)[C@@H](C)O)C(=O)N[C@@H](CC(=O)O)C(=O)N[C@@H](CCCCNC(=O)COCCOCCNC(=O)COCCOCCNC(=O)CC[C@H](NC(=O)CCCCCCCCCCCCCCCCC(=O)O)C(=O)O)C(=O)N[C@@H](CCCCN)C(=O)N[C@@H](CCCNC(=N)N)C(=O)N[C@@H](C)C(=O)N[C@@H](CCC(N)=O)C(=O)N[C@@H](CCC(=O)O)C(=O)N[C@@H](Cc1ccccc1)C(=O)N[C@H](C(=O)N[C@@H](CCC(N)=O)C(=O)N[C@@H](Cc1c[nH]c2ccccc12)C(=O)N[C@@H](CC(C)C)C(=O)N[C@@H](CC(C)C)C(=O)N[C@@H](CC(N)=O)C(=O)N[C@H](C(N)=O)[C@@H](C)O)C(C)C)

# The remaining lines, values behind:
row,Binder,Assay (I) Glucagon [EC50]
1,HSQGTFTSDYSKYLDERRAQDFVK([AEEA-AEEA-γGlu-C18 diacid])WLLAT-NH2 (N-terminus assumed; SMILES CC(C)C[C@H](NC(=O)[C@H](CC(C)C)NC(=O)[C@H](Cc1c[nH]c2ccccc12)NC(=O)[C@H](CCCCNC(=O)COCCOCCNC(=O)COCCOCCNC(=O)CC[C@H](NC(=O)CCCCCCCCCCCCCCCCC(=O)O)C(=O)O)NC(=O)[C@@H](NC(=O)[C@H](Cc1ccccc1)NC(=O)[C@H](CC(=O)O)NC(=O)[C@H](CCC(N)=O)NC(=O)[C@H](C)NC(=O)[C@H](CCCNC(=N)N)NC(=O)[C@H](CCCNC(=N)N)NC(=O)[C@H](CCC(=O)O)NC(=O)[C@H](CC(=O)O)NC(=O)[C@H](CC(C)C)NC(=O)[C@H](Cc1ccc(O)cc1)NC(=O)[C@H](CCCCN)NC(=O)[C@H](CO)NC(=O)[C@H](Cc1ccc(O)cc1)NC(=O)[C@H](CC(=O)O)NC(=O)[C@H](CO)NC(=O)[C@@H](NC(=O)[C@H](Cc1ccccc1)NC(=O)[C@@H](NC(=O)CNC(=O)[C@H](CCC(N)=O)NC(=O)[C@H](CO)NC(=O)[C@@H](N)Cc1c[nH]cn1)[C@@H](C)O)[C@@H](C)O)C(C)C)C(=O)N[C@@H](C)C(=O)N[C@H](C(N)=O)[C@@H](C)O),0.0235 nM
2,HSQGTFTSDYSKYLDEKAAQEFVK([AEEA-AEEA-γGlu-C18 diacid])WLLNT-NH2 (N-terminus assumed; SMILES CC(C)C[C@H](NC(=O)[C@H](Cc1ccc(O)cc1)NC(=O)[C@H](CCCCN)NC(=O)[C@H](CO)NC(=O)[C@H](Cc1ccc(O)cc1)NC(=O)[C@H](CC(=O)O)NC(=O)[C@H](CO)NC(=O)[C@@H](NC(=O)[C@H](Cc1ccccc1)NC(=O)[C@@H](NC(=O)CNC(=O)[C@H](CCC(N)=O)NC(=O)[C@H](CO)NC(=O)[C@@H](N)Cc1c[nH]cn1)[C@@H](C)O)[C@@H](C)O)C(=O)N[C@@H](CC(=O)O)C(=O)N[C@@H](CCC(=O)O)C(=O)N[C@@H](CCCCN)C(=O)N[C@@H](C)C(=O)N[C@@H](C)C(=O)N[C@@H](CCC(N)=O)C(=O)N[C@@H](CCC(=O)O)C(=O)N[C@@H](Cc1ccccc1)C(=O)N[C@H](C(=O)N[C@@H](CCCCNC(=O)COCCOCCNC(=O)COCCOCCNC(=O)CC[C@H](NC(=O)CCCCCCCCCCCCCCCCC(=O)O)C(=O)O)C(=O)N[C@@H](Cc1c[nH]c2ccccc12)C(=O)N[C@@H](CC(C)C)C(=O)N[C@@H](CC(C)C)C(=O)N[C@@H](CC(N)=O)C(=O)N[C@H](C(N)=O)[C@@H](C)O)C(C)C),0.048 nM
3,HSQGTFTSDYSKYLDSQRAQDFVK([AEEA-AEEA-γGlu-C18 diacid])WLVKTGP-NH2 (N-terminus assumed; SMILES CC(C)C[C@H](NC(=O)[C@H](Cc1ccc(O)cc1)NC(=O)[C@H](CCCCN)NC(=O)[C@H](CO)NC(=O)[C@H](Cc1ccc(O)cc1)NC(=O)[C@H](CC(=O)O)NC(=O)[C@H](CO)NC(=O)[C@@H](NC(=O)[C@H](Cc1ccccc1)NC(=O)[C@@H](NC(=O)CNC(=O)[C@H](CCC(N)=O)NC(=O)[C@H](CO)NC(=O)[C@@H](N)Cc1c[nH]cn1)[C@@H](C)O)[C@@H](C)O)C(=O)N[C@@H](CC(=O)O)C(=O)N[C@@H](CO)C(=O)N[C@@H](CCC(N)=O)C(=O)N[C@@H](CCCNC(=N)N)C(=O)N[C@@H](C)C(=O)N[C@@H](CCC(N)=O)C(=O)N[C@@H](CC(=O)O)C(=O)N[C@@H](Cc1ccccc1)C(=O)N[C@H](C(=O)N[C@@H](CCCCNC(=O)COCCOCCNC(=O)COCCOCCNC(=O)CC[C@H](NC(=O)CCCCCCCCCCCCCCCCC(=O)O)C(=O)O)C(=O)N[C@@H](Cc1c[nH]c2ccccc12)C(=O)N[C@@H](CC(C)C)C(=O)N[C@H](C(=O)N[C@@H](CCCCN)C(=O)N[C@H](C(=O)NCC(=O)N1CCC[C@H]1C(N)=O)[C@@H](C)O)C(C)C)C(C)C),0.942 nM
